Assay results reported in the supplement of paper PMC10126150.
± gives the standard deviation of the averaged measurements.

Test system: ATP
Assay: switch fluorescence ratio, 500 uM ATP over buffer (Cy3 cluster intensity, sum of 5 cycles each) (fold (ratio)); higher = stronger signal-on switching upon ATP binding; sequences stand for … in TCGTCGGCAGCGTCAGATGTGTATAAGAGACAGTTTTTTTTTTTTTTTTTTTTTTTTT…TC
Conditions: aptamer strand: ATP DNA aptamer (quencher-CACCTGGGGGAGTATTGCGGAGGAAGG + anchor), 100 nM annealed; ATP concentration: 500 uM
In short: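 Values give the fluorescence ratio for each switch-domain sequence, averaged from per-cluster ratios of summed target-cycle to summed buffer-cycle Cy3 intensity. The Cy3-labelled switching-strand clusters sat on a modified Illumina MiSeq flow-cell, were annealed to 100 nM quencher-labelled ATP aptamer, and were imaged in selection buffer, then after 15 min with 500 uM ATP at 22 °C. Five cycles ran with NaOH stripping and re-annealing between them, and clusters outside 100-1000 RFU were excluded.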
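Also: ATP exposure 15 min at 22 °C before imaging.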

| Sequence | switch fluorescence ratio |
| --- | --- |
| CGGGAGCTTT | 1.07 ± 0.012 |
| CGGGAGGGTC | 1.06 ± 0.012 |
| CGGGAGGTTT | 0.9854 ± 0.0083 |
| CGGGATAATG | 0.994 ± 0.021 |
| CGGGATTAGC | 0.983 ± 0.022 |
| CGGGATTATC | 1.01 ± 0.021 |
| CGGGATTGAG | 0.979 ± 0.0058 |
| CGGGATTGGG | 0.96 ± 0.061 |
| CGGGCAGGTA | 1.044 ± 0.0039 |
| CGGGCAGTTT | 1.03 ± 0.041 |
| CGGGCCCTGA | 0.977 ± 0.013 |
| CGGGCGCGTT | 0.984 ± 0.054 |
| CGGGCTTCTA | 1.04 ± 0.053 |
| CGGGGAAAGA | 0.978 ± 0.03 |
| CGGGGAACTT | 1.01 ± 0.019 |
| CGGGGAATAT | 0.993 ± 0.017 |
| CGGGGACGGT | 0.9631 ± 0.0064 |
| CGGGGAGGAA | 1.01 ± 0.072 |
| CGGGGAGGGA | 1.03 ± 0.019 |
| CGGGGATAAG | 0.981 ± 0.011 |
| CGGGGATAGG | 1.041 ± 0.0075 |
| CGGGGATATG | 0.9607 ± 0.0029 |
| CGGGGATTTT | 1.01 ± 0.051 |
| CGGGGCAAAA | 1.04 ± 0.027 |
| CGGGGCATGG | 1 ± 0.039 |

| Sequence | switch fluorescence ratio |
| --- | --- |
| CGGGGCCATG | 1.02 ± 0.068 |
| CGGGGCCTGG | 0.959 ± 0.021 |
| CGGGGCGCTA | 1.21 ± 0.29 |
| CGGGGCGGCG | 0.986 ± 0.002 |
| CGGGGCTATT | 0.999 ± 0.03 |
| CGGGGCTGGC | 1.2 ± 0.13 |
| CGGGGGACGC | 0.993 ± 0.06 |
| CGGGGGAGTG | 0.975 ± 0.025 |
| CGGGGGATGT | 0.999 ± 0.024 |
| CGGGGGATT | 1.03 ± 0.02 |
| CGGGGGCCGT | 0.936 ± 0.014 |
| CGGGGGCGTT | 1 ± 0.018 |
| CGGGGGCTG | 1 ± 0.039 |
| CGGGGGCTGG | 0.989 ± 0.059 |
| CGGGGGCTTT | 0.99 ± 0.017 |
| CGGGGGGGCA | 1 ± 0.038 |
| CGGGGGGGGG | 1.02 ± 0.054 |
| CGGGGGGTCT | 0.999 ± 0.04 |
| CGGGGGTACG | 1.02 ± 0.074 |
| CGGGGGTAGA | 0.966 ± 0.042 |
| CGGGGGTAGG | 1.03 ± 0.049 |
| CGGGGGTCGG | 0.978 ± 0.012 |
| CGGGGGTCTT | 1 ± 0.021 |
| CGGGGGTTAG | 0.999 ± 0.033 |
| CGGGGGTTTT | 0.994 ± 0.034 |

| Sequence | switch fluorescence ratio |
| --- | --- |
| CGGGGTATGG | 1 ± 0.011 |
| CGGGGTCGTA | 1 ± 0.047 |
| CGGGGTCTTC | 0.996 ± 0.012 |
| CGGGGTGCGA | 1.02 ± 0.021 |
| CGGGGTTCGA | 1 ± 0.011 |
| CGGGGTTGCT | 1.03 ± 0.054 |
| CGGGGTTGGT | 1.01 ± 0.016 |
| CGGGGTTGTC | 0.966 ± 0.069 |
| CGGGTAAGTG | 0.97 ± 0.014 |
| CGGGTATAGG | 1.013 ± 0.01 |
| CGGGTATGAT | 1.031 ± 0.0092 |
| CGGGTATTCT | 0.974 ± 0.046 |
| CGGGTATTTA | 1.01 ± 0.025 |
| CGGGTATTTT | 0.9878 ± 0.0043 |
| CGGGTCTGTT | 0.979 ± 0.047 |
| CGGGTGACTC | 1.02 ± 0.012 |
| CGGGTGAGCT | 1.11 ± 0.16 |
| CGGGTGAGTT | 1.15 ± 0.25 |
| CGGGTGCCGT | 1.06 ± 0.15 |
| CGGGTGCGGG | 1.02 ± 0.038 |
| CGGGTGGGAG | 0.991 ± 0.038 |
| CGGGTGGGTG | 1.01 ± 0.013 |
| CGGGTGGTTG | 1.04 ± 0.04 |
| CGGGTGTGAG | 1.006 ± 0.0055 |
| CGGGTGTGCG | 0.955 ± 0.088 |

| Sequence | switch fluorescence ratio |
| --- | --- |
| CGGGTGTGGC | 1.05 ± 0.015 |
| CGGGTTAGTG | 0.992 ± 0.023 |
| CGGGTTGGGC | 1.07 ± 0.027 |
| CGGGTTGTCT | 0.963 ± 0.1 |
| CGGGTTGTTA | 0.9951 ± 0.0081 |
| CGGGTTTTGA | 1.003 ± 0.0086 |
| CGGTAAAAAG | 1.01 ± 0.017 |
| CGGTAAATGG | 1.02 ± 0.04 |
| CGGTAAGGGG | 0.987 ± 0.01 |
| CGGTAATGGG | 0.943 ± 0.031 |
| CGGTACGCTG | 1.01 ± 0.017 |
| CGGTACGTTT | 1.007 ± 0.0015 |
| CGGTAGGATC | 0.995 ± 0.03 |
| CGGTAGGGGT | 0.969 ± 0.028 |
| CGGTAGGGTA | 0.991 ± 0.026 |
| CGGTAGTATC | 0.982 ± 0.049 |
| CGGTAGTCGA | 1.02 ± 0.052 |
| CGGTATCCGT | 0.978 ± 0.062 |
| CGGTATCTGA | 0.9888 ± 0.006 |
| CGGTATTGGT | 0.976 ± 0.031 |
| CGGTATTTGC | 0.979 ± 0.0099 |
| CGGTATTTTT | 1.02 ± 0.028 |
| CGGTCAACG | 0.993 ± 0.022 |
| CGGTCACGCG | 0.972 ± 0.039 |
| CGGTCAGGGA | 1.01 ± 0.037 |
